Data: US20120316071A1
Blank lines part the entries; values can stand above or below the substance they belong to.

Assays:
[1] = target: rHuman Notch-1/Fc Chimera, CF (R&D Systems Cat#3647-TK) (human) (UniProt P46531); test: ECL multispot (MSD) binding assay, antigens spotted on plate, 20 nM Fab
[2] = target: human DLL4, full-length, expressed on the surface of CHO cells (human) (UniProt Q9NR61); test: cell-based or functional assay
[3] = target: rHuman HGF R/c-MET/Fc Chimera, CF (R&D Systems Cat#358-MT/CF) (human) (UniProt P08581); test: ECL multispot (MSD) binding assay, antigen spotted on plate, Fab 0.04 uM
[4] = target: rHuman IGF-1 sR, CF (R&D Systems Cat#391-GR) (human) (UniProt P08069); test: as above
[5] = target: human Delta-like ligand 4 (DLL4), full-length, expressed on CHO cells (human) (UniProt Q9NR61); test: cell-based or functional assay
[6] = target: rHuman Erythropoietin R/Fc Chimera, CF (R&D Systems Cat#963-ER) (human) (UniProt P19235); test: ECL multispot (MSD) binding assay, antigens spotted on plate, 20 nM Fab
[7] = target: rHuman P-Cadherin/Fc Chimera, CF (R&D Systems Cat#861-PC) (human) (UniProt P22223); test: as above
[8] = target: rHuman ErbB2/Fc Chimera, CF (R&D Systems Cat#1129-ER) (human) (UniProt P04626); test: ECL (MSD) multispot binding assay, antigen spotted on plate, 20 nM Fab
[9] = target: rHuman CD44/Fc Chimera, CF (R&D Systems Cat#3660-CD) (human) (UniProt P16070); test: MSD Multispot ECL, antigen spotted on plate, Fab in solution; blank spot of the row 240
[10] = target: rHuman ErbB2/Fc Chimera, CF (R&D Systems Cat#1129-ER) (human) (UniProt P04626); test: as above
[11] = target: rHuman IGF-1 sR, (IGF-1 sR), CF (R&D Systems Cat#391-GR) (human) (UniProt P08069); test: as above
[12] = target: Recombinant Human DLL4 (R&D Systems Cat#1506-D4/CF) (human) (UniProt Q9NR61); test: ECL Multispot (MSD), antigen spotted, Fab
[13] = target: rHuman HGF R/c-MET/Fc Chimera, CF (R&D Systems Cat#358-MT/CF) (human) (UniProt P08581); test: ECL Multispot (MSD), antigen spotted, Fab
[14] = target: rHuman IGF-1 sR, CF (R&D Systems Cat#391-GR) (human) (UniProt P08069); test: ECL Multispot (MSD), antigen spotted, Fab
[15] = target: rHuman Notch-1/Fc Chimera, CF (R&D Systems Cat#3647-TK) (human) (UniProt P46531); test: ECL Multispot (MSD), antigen spotted, Fab
[16] = target: rHuman P-Cadherin/Fc Chimera, CF (human) (UniProt P22223); test: ECL Multispot (MSD) assay; antigen spotted on plate, Fab in solution
[17] = target: rHuman EGF R/Fc Chimera, CF (R&D Systems Cat#344-ER) (human) (UniProt P00533); test: ECL (MSD) multispot binding assay, antigen spotted on plate, 20 nM Fab
[18] = target: rHuman CD44/Fc Chimera, CF (R&D Systems Cat#3660-CD) (human) (UniProt P16070); test: ECL multispot (MSD) binding assay, antigen spotted on plate, Fab 0.04 uM
[19] = target: rHuman Erythropoietin R/Fc Chimera, CF (R&D Systems Cat#963-ER) (human) (UniProt P19235); test: as above
[20] = target: rHuman Notch-1/Fc Chimera, CF (R&D Systems Cat#3647-TK) (human) (UniProt P46531); test: as above
[21] = target: Recombinant Human DLL4 (R&D Systems Cat#1506-D4/CF) (human) (UniProt Q9NR61); test: ECL multispot (MSD), antigen spotted, Fab in solution
[22] = target: rHuman CD44/Fc Chimera, CF (R&D Systems Cat#3660-CD) (human) (UniProt P16070); test: as above
[23] = target: rHuman Erythropoietin R/Fc Chimera, CF (R&D Systems Cat#963-ER) (human) (UniProt P19235); test: as above
[24] = target: rHuman HGF R/c-MET/Fc Chimera, CF (R&D Systems Cat#358-MT/CF) (human) (UniProt P08581); test: as above
[25] = target: rHuman IGF-1 sR, CF (R&D Systems Cat#391-GR) (human) (UniProt P08069); test: as above
[26] = target: rHuman Notch-1/Fc Chimera, CF (R&D Systems Cat#3647-TK) (human) (UniProt P46531); test: as above
[27] = target: rHuman P-Cadherin/Fc Chimera, CF (R&D Systems Cat#861-PC) (human) (UniProt P22223); test: as above

ECL multispot signal (ratio to blank; column not labelled) [1]: 2.5
Substance: Fab VH3-23_IGHD2-21*01>3_IGHJ6*01 H100E/S108P/Y113G Y110I & V2-13_IGLJ2*01

Notch1 luciferase reporter luminescence, T98G reporter cells + CHO-DLL4, 0.8 nM IgG, replicate 1 [2]: 4440
Notch1 luciferase reporter luminescence, T98G reporter cells + CHO-DLL4, 0.8 nM IgG, replicate 2 [2]: 4520
Notch1 luciferase reporter luminescence, T98G reporter cells + CHO-DLL4, 0.8 nM IgG, replicate 3 [2]: 3900
Notch1 luciferase reporter luminescence, T98G reporter cells + CHO-DLL4, 0.8 nM IgG, replicate 4 [2]: 3980
Notch1 luciferase reporter luminescence, T98G reporter cells + CHO-DLL4, 4 nM IgG, replicate 1 [2]: 4260
Notch1 luciferase reporter luminescence, T98G reporter cells + CHO-DLL4, 4 nM IgG, replicate 2 [2]: 3860
Notch1 luciferase reporter luminescence, T98G reporter cells + CHO-DLL4, 4 nM IgG, replicate 3 [2]: 3950
Notch1 luciferase reporter luminescence, T98G reporter cells + CHO-DLL4, 4 nM IgG, replicate 4 [2]: 3760
Notch1 luciferase reporter luminescence, T98G reporter cells + CHO-DLL4, 20 nM IgG, replicate 1 [2]: 1250
Notch1 luciferase reporter luminescence, T98G reporter cells + CHO-DLL4, 20 nM IgG, replicate 2 [2]: 1270
Notch1 luciferase reporter luminescence, T98G reporter cells + CHO-DLL4, 20 nM IgG, replicate 3 [2]: 1170
Notch1 luciferase reporter luminescence, T98G reporter cells + CHO-DLL4, 20 nM IgG, replicate 4 [2]: 1190
Notch1 luciferase reporter luminescence, T98G reporter cells + CHO-DLL4, 100 nM IgG, replicate 1 [2]: 757
Notch1 luciferase reporter luminescence, T98G reporter cells + CHO-DLL4, 100 nM IgG, replicate 2 [2]: 807
Notch1 luciferase reporter luminescence, T98G reporter cells + CHO-DLL4, 100 nM IgG, replicate 3 [2]: 678
Notch1 luciferase reporter luminescence, T98G reporter cells + CHO-DLL4, 100 nM IgG, replicate 4 [2]: 688
Substance: IgG of VH1-46_IGHD6-6*01_IGHJ1*01 S102A/S103P/S104F/H111F I51V/N52L/S54T/G56H (APFF VLTH) & L6_IGKJ1*01 S28N/S30D/S31H S52L/A55S (NDH LS) (antibody)

ECL signal [3]: 1150
ECL signal [4]: 1090
Substance: Fab VH5-51_IGHD5-18*01>3_IGHJ4*01 G100K/G104T (H:KT) & V3-4_IGLJ1*01 M94A

Notch1 luciferase reporter luminescence, T98G reporter cells + CHO-DLL4, 0.8 nM Fab, replicate 1 [5]: 4740
Notch1 luciferase reporter luminescence, T98G reporter cells + CHO-DLL4, 0.8 nM Fab, replicate 2 [5]: 4890
Notch1 luciferase reporter luminescence, T98G reporter cells + CHO-DLL4, 0.8 nM Fab, replicate 3 [5]: 3820
Notch1 luciferase reporter luminescence, T98G reporter cells + CHO-DLL4, 0.8 nM Fab, replicate 4 [5]: 4080
Notch1 luciferase reporter luminescence, T98G reporter cells + CHO-DLL4, 4 nM Fab, replicate 1 [5]: 4840
Notch1 luciferase reporter luminescence, T98G reporter cells + CHO-DLL4, 4 nM Fab, replicate 2 [5]: 4880
Notch1 luciferase reporter luminescence, T98G reporter cells + CHO-DLL4, 4 nM Fab, replicate 3 [5]: 4250
Notch1 luciferase reporter luminescence, T98G reporter cells + CHO-DLL4, 4 nM Fab, replicate 4 [5]: 4670
Notch1 luciferase reporter luminescence, T98G reporter cells + CHO-DLL4, 20 nM Fab, replicate 1 [5]: 4380
Notch1 luciferase reporter luminescence, T98G reporter cells + CHO-DLL4, 20 nM Fab, replicate 2 [5]: 4480
Notch1 luciferase reporter luminescence, T98G reporter cells + CHO-DLL4, 20 nM Fab, replicate 3 [5]: 3960
Notch1 luciferase reporter luminescence, T98G reporter cells + CHO-DLL4, 20 nM Fab, replicate 4 [5]: 3990
Substance: Fab VH1-46_IGHD6-6*01_IGHJ1*01 S102A/S103P/S104F/H111F I51V/N52L/S54T/G56H & L6_IGKJ1*01 S28N/S30D/S31H S52L/A55S

ECL multispot signal (ratio to blank; column not labelled) [6]: 3.7
ECL multispot signal (ratio to blank; column not labelled) [7]: 2.9
Substance: Fab VH3-23_IGHD2-21*01>3_IGHJ6*01 H100E/S108P/Y113G Y110H & V2-13_IGLJ2*01

ECL multispot value [8]: 3.5
Substance: Fab VH3-23_IGHD2-21*01>3_IGHJ6*01 H100E/S108P/Y113G Y114N & V2-13_IGLJ2*01

ECL signal [9]: 513
ECL signal [10]: 921
ECL signal [11]: 788
Substance: Fab VH5-51_IGHD5-18*01>3_IGHJ4*01 G100K/G104T W33A & V3-4_IGLJ1*01

ECL signal/blank ratio [12]: 3
ECL signal/blank ratio [13]: 3
ECL signal/blank ratio [14]: 2.5
ECL signal/blank ratio [15]: 2.8
Substance: Fab VH3-23_IGHD3-10*01>3_IGHJ6*01 Y110R & O12_IGKJ1*01

ECL signal [16]: 809
Substance: Fab VH1-46_IGHD6-6*01_IGHJ1*01 S102A/S103P/S104F/H111F (APFF) & L6_IGKJ1*01 S28Q

ECL multispot value [17]: 3.7
Substance: Fab VH3-23_IGHD2-21*01>3_IGHJ6*01 H100E/S108P/Y113G Y112R & V2-13_IGLJ2*01

ECL signal [3]: 909
ECL signal [4]: 943
Substance: Fab VH5-51_IGHD5-18*01>3_IGHJ4*01 G100K/G104T (H:KT) & V3-4_IGLJ1*01 S99A

ECL signal [16]: 676
Substance: Fab VH1-46_IGHD6-6*01_IGHJ1*01 S102A/S103P/S104F/H111F (APFF) & L6_IGKJ1*01 S28T

ECL signal [18]: 678
ECL signal [19]: 684
ECL signal [3]: 1120
ECL signal [4]: 927
ECL signal [20]: 715
Substance: Fab VH5-51_IGHD5-18*01>3_IGHJ4*01 G100K/G104T (H:KT) & V3-4_IGLJ1*01 S96A

ECL signal [4]: 1030
Substance: Fab VH5-51_IGHD5-18*01>3_IGHJ4*01 G100K/G104T (H:KT) & V3-4_IGLJ1*01 V91A

ECL signal/blank ratio [21]: 1
ECL signal/blank ratio [22]: 1.1
ECL signal/blank ratio [23]: 0.9
ECL signal/blank ratio [24]: 1.1
ECL signal/blank ratio [25]: 0.8
ECL signal/blank ratio [26]: 1.1
ECL signal/blank ratio [27]: 1.4
Substance: Fab VH3-23_IGHD3-10*01>3_IGHJ6*01 Y112P & O12_IGKJ1*01

ECL signal [18]: 695
ECL signal [4]: 959
ECL signal [20]: 693
Substance: Fab VH5-51_IGHD5-18*01>3_IGHJ4*01 G100K/G104T (H:KT) & V3-4_IGLJ1*01 L92A

ECL signal/blank ratio [12]: 2.9
ECL signal/blank ratio [13]: 3.2
ECL signal/blank ratio [15]: 3
Substance: Fab VH3-23_IGHD3-10*01>3_IGHJ6*01 Y111R & O12_IGKJ1*01

ECL multispot signal (ratio to blank; column not labelled) [6]: 3.5
ECL multispot signal (ratio to blank; column not labelled) [1]: 2.3
Substance: Fab VH3-23_IGHD2-21*01>3_IGHJ6*01 H100E/S108P/Y113G Y110T & V2-13_IGLJ2*01

ECL signal [3]: 999
ECL signal [4]: 1090
ECL signal [20]: 707
Substance: Fab VH5-51_IGHD5-18*01>3_IGHJ4*01 G100K/G104T (H:KT) & V3-4_IGLJ1*01 G95A

Notch1 luciferase reporter luminescence, T98G reporter cells + CHO-DLL4, 100 nM Fab, replicate 1 [2]: 2400
Notch1 luciferase reporter luminescence, T98G reporter cells + CHO-DLL4, 100 nM Fab, replicate 2 [2]: 2280
Notch1 luciferase reporter luminescence, T98G reporter cells + CHO-DLL4, 100 nM Fab, replicate 3 [2]: 2150
Notch1 luciferase reporter luminescence, T98G reporter cells + CHO-DLL4, 100 nM Fab, replicate 4 [2]: 2170
Substance: Fab VH1-46_IGHD6-6*01_IGHJ1*01 S102A/S103P/S104F/H111F I51V/N52L/S54T/G56H (APFF VLTH) & L6_IGKJ1*01 S28N/S30D/S31H S52L/A55S (NDH LS)

ECL signal [18]: 642
ECL signal [19]: 528
ECL signal [3]: 1110
ECL signal [4]: 1030
ECL signal [20]: 660
Substance: Fab VH5-51_IGHD5-18*01>3_IGHJ4*01 G100K/G104T (H:KT) & V3-4_IGLJ1*01 G97A

ECL signal/blank ratio [17]: 2.9
ECL signal/blank ratio [8]: 3
Substance: Fab VH3-23_IGHD2-21*01>3_IGHJ6*01 H100E/S108P/Y113G/Y111H & V2-13_IGLJ2*01

ECL multispot signal (ratio to blank; column not labelled) [7]: 2.7
Substance: Fab VH3-23_IGHD2-21*01>3_IGHJ6*01 H100E/S108P/Y113G Y109G & V2-13_IGLJ2*01

ECL signal [3]: 1130
ECL signal [4]: 1050
Substance: Fab VH5-51_IGHD5-18*01>3_IGHJ4*01 G100K/G104T (H:KT) & V3-4_IGLJ1*01 Y93A
